No end group written: not given here.
Assays:
Assay type in all cases: in vivo
[1] = test system: βFGF induced angiogenesis; assay: βFGF induced angiogenesis in the chick CAM assay, systemic Pexstatin; details: 3 day incubation
Protocol: A). Filter discs saturated with βFGF were placed on the CAMs of 10 day old chick embryos. Twenty four hours later, the embryos received a single intravenous injection with 50 μg of Pexstatin, control peptide or PBS. At the end of a 3 day incubation period the filter discs and surrounding CAM tissue were removed and angiogenesis was quantified by counting the number of blood vessel branch points within the area of the filter disc.
B). FIG. 4 illustrates the quantification of the angiogenesis experiment with Pexstatin. Data bars represent the mean+standard errors of 5 to 10 embryos per condition. The angiogenesis index is equal to the number of branch points from experimentally treated embryos minus the number of branch points from CAMs in the absence of βFGF.

[2] = test system: B16 melanoma tumor cells; assay: Chick embryo experimental metastasis model, B16 melanoma; details: 10 μg/embryo inoculated intravenously with the tumor cells, 12 day old chick embryos, 7 day incubation
Protocol: To examine the effects of Pexstatin on melanoma tumor metastasis in vivo, the chick embryo experimental metastasis model was utilized. Briefly, B16 melanoma tumor cells (2.5×10^4) were inoculated intravenously with Pexstatin (10 μg/embryo) or a control peptide in 12 day old chick embryos. In addition, a no treatment control was also added (NT). The Embryos were allowed to incubate for a total of 7 days. At the end of a 7 day incubation period the embryos were sacrificed and the lungs were removed for analysis. The number of melanoma lung lesions were counted for each lobe of the lung. Data bars represent the mean+the standard errors of the metastatic lung lesions from 5 to 10 embryos per condition.

[3] = test system: M21 human melanoma tumor cells; assay: M21 human melanoma tumor growth in nude mice, systemic Pexstatin; details: female nude mice, daily injections of 100 μg
Protocol: M21 human melanoma tumor cells (2×10^6) were injected subcutaneously into female nude mice. Twenty four hours later the mice were treated daily with injections of 100 μg of Pexstatin MMP-2 peptide or PBS controls. Tumor sizes were monitored daily by caliper measurements. Data bars represent the mean tumor volume+the standard errors at each time point. Tumor volumes were estimated using the formula V=L2×W/2, V=volume, L=length, and W=width.

[4] = test system: CS-1 melanoma tumor cells; assay: CS-1 melanoma tumor growth on the CAM of chick embryos, systemic Pexstatin
Protocol: CS-1 melanoma tumor cells (5×10^6) were inoculated on the Chorioallantoic Membranes (CAMs) of 10 day old chick embryos. Twenty four hours latter the embryos received a single intravenous injection of 50 μg of Pexstatin peptide or PBS control. At the end of a 7 day incubation period the resulting tumors were resected and wet weights determined. Data bars represent the mean±the standard errors of the tumor weight from 5 to 10 embryos per condition.

## CIFAGDKFWRC (cysteine pairing not given here) [Pexstatin, eleven amino acid peptide based on MMP-2 positions 582–590 flanked by cysteine residues]
[1]; chick embryo, single i.v. 50 μg
  toxic side effects in the embryos during the assay period: no toxic side effects were noted
[1]; single intravenous injection of 50 μg, chick CAM
  inhibition of βFGF induced angiogenesis (angiogenesis index, branch points) as compared to controls: approximately 90%
[2]
  inhibition of experimental B16 melanoma metastasis (lung lesions) as compared to controls: approximately 80%
[3]
  toxic side effects during the assay period: no toxic side effects were noted
[4]; chick embryo, single i.v. 50 μg, 7 day incubation
  toxic side effects during the assay period: no toxic side effects were noted
[4]; single intravenous injection of 50 μg, 24 h after inoculation, within 7 days, chick embryo CAM
  inhibition of CS1 melanoma tumor growth (tumor wet weight) as compared to controls: approximately 60%
